Experiment [1] concerns the target FN-67B89 (recombinant human fibronectin EDB flanked by its surrounding type III domains, C-terminal hexahistidine tag) (human) (UniProt P02751). The experiment is described as follows: SPR, biotinylated FN-67B89 on streptavidin sensor, 50-4000 nM, 1:1 Langmuir fit.
Experiment [2] shares this target. The experiment is described as follows: SPR, biotinylated FN-67B89 on streptavidin sensor, 1.25-10 nM, 1:1 Langmuir fit. (SPR reads the build-up and loss of mass on a sensor chip optically.)
The target is the same in experiment [3]. The experiment is described as follows: ELISA titration of Trx-miniprotein on coated protein (1 µg/well), HRP anti-S-tag antibody, duplicates [continued), panel MCopt 1.0-3].
Experiment [4] addresses T1, FN-B(8-14) (R&D Systems), EDB with C-terminal domains 8-13 and 1/2 of domain 14 (UniProt P02751 1265-1908).
T1 construct: domain: EDB with C-terminal domains 8-13 and 1/2 of domain 14; Bought
The experiment is described as follows: ELISA titration of Trx-miniprotein on coated protein (1 µg/well), HRP anti-S-tag antibody, single values [continued), panel MCopt 1.0-3]. The procedure:
(§1) FIG. 6: Saturation-binding curves of MCopt 1.0-2/-3 and MCopt 2.0-1/-2/-3 EDB binding. […] Binding of Trx-cystine-knot miniproteins was detected with an HRP-conjugated anti-s-tag-antibody. ELISAs were performed in duplicates (single values for FN-B(8-14)).
(§2) ELISA was used as technique to analyze protein-protein interactions. Cavities of 96-well microtiter plates (Nunc MaxiSorp™, Thermo Fisher Scientific) were coated with 1 μg FN-B, bovine serum albumin (BSA, Eurobio), milk powder, streptavidin (Sigma Aldrich), T7-His-TEV-B (LD BioPharma), FN-B(8-14) (R&D Systems), lysozyme, ovalbumin (GE Healthcare Life Science), aldolase (GE Healthcare Life Science) or 0.6 μg anti-c-myc-antibody (M4439, Sigma) overnight at 4° C. The wells were washed three times with PBS-T (1×PBS with 0.1% (w/v) Tween-20), blocked with 1× Casein buffer (Sigma Aldrich) diluted in PBS for 2 h at RT and washed again as described. […] After three times of washing with PBS-T, binding of the respective variant was detected with a horseradish peroxidase (HRP)-conjugated anti-S-tag antibody (ab18589 or ab19324, Abeam). Enzymatic reaction was measured with TMB as a chromogenic substrate and stopped with 0.2 M HCl after approximately 5 min. The measurement of absorbance at 450 nm was performed using an Infinite M200 PRO Microplate Reader (Tecan).

The target in experiment [5] is T2, FN-B (recombinant human fibronectin EDB as a single domain, C-terminal hexahistidine tag) (human, UniProt P02751 1266-1356, Biotinylated on primary amines only for the phage screening; coated unmodified in the ELISAs).
T2 construct: Made in E. coli (pET-21a); Residue numbers count on isoform 7 of P02751; Biotinylated on primary amines for the phage screening; also called Fibronectin Extra Domain B; single domain FN-B
T2 sequence (P02751 other isoform, or with tags, fused parts or gaps limits assumed): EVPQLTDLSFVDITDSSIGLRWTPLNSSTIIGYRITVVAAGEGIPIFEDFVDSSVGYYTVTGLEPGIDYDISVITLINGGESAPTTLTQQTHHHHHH
Nature of the experiment: ELISA titration of Trx-miniprotein on coated protein (1 µg/well), HRP anti-S-tag antibody, duplicates [continued), panel MCopt 1.0-3]. Here is the method: as §1, §2

In the next experiment the target is T3, bovine serum albumin (bovine, UniProt P02769 25-607).
T3 construct: Control protein coated in ELISA; also called BSA
T3 sequence (P02769 25-607 limits assumed): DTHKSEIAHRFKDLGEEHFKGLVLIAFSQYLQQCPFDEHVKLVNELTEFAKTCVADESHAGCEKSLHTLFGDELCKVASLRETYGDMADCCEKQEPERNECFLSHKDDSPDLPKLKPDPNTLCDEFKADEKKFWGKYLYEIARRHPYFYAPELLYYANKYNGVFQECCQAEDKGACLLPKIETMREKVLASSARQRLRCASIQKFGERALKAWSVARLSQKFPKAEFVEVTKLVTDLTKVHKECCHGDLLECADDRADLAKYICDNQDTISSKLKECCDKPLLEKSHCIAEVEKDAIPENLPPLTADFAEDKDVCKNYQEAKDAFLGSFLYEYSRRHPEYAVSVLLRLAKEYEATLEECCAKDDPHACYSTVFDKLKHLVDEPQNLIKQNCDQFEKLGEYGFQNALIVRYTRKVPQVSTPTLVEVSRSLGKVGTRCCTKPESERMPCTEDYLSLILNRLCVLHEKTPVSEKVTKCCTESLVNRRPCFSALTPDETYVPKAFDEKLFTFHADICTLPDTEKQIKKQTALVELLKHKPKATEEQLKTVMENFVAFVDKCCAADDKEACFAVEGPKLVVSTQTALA
The experiment is described as follows: ELISA, 200 nM Trx-miniprotein on coated protein (1 µg/well), duplicates. Here is the method:
FIG. 5: Extended specificity analysis of Trx-cystine-knot miniprotein clones MCopt 1.0-2/-3 and MCopt 2.0-1/-2/3. […] ELISA was performed in duplicates, error bars represent standard deviation and Trx-MC-Myc-010 served as negative cystine-knot miniprotein control.
as §2
In general terms: An ELISA detects its analyte on a solid surface through an enzyme-linked reagent.

Experiment [6] deals with FN-67B89 (recombinant human fibronectin EDB flanked by its surrounding type III domains, C-terminal hexahistidine tag) (human) (UniProt P02751). Nature of the experiment: SPR single cycle kinetics, biotinylated FN-67B89 on streptavidin chip, 1.25-10 nM, 1:1 Langmuir fit.
Experiment [7] shares this target. The experiment is described as follows: SPR, biotinylated FN-67B89 on streptavidin sensor, 62.5-4000 nM, 1:1 Langmuir fit.
For experiment [8], the target named is T4, FN-6789 (recombinant human fibronectin type III domains 6-9 without EDB, C-terminal hexahistidine tag) (human, UniProt P02751-1 1085-1446, limits assumed).
T4 construct: domain: domains 6-9 without EDB; Control protein
T4 sequence (P02751 other isoform, or with tags, fused parts or gaps limits assumed): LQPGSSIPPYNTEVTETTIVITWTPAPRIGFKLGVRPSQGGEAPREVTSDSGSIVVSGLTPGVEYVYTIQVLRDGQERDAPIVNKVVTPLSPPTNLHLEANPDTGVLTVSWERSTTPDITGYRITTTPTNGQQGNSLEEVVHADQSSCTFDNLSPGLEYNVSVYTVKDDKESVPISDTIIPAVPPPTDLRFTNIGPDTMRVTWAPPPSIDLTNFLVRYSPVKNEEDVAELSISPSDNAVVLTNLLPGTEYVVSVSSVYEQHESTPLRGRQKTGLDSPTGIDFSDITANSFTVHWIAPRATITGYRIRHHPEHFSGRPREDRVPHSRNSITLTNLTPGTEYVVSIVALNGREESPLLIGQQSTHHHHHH
Nature of the experiment: ELISA, 1.56 to 50 nM Trx-miniprotein on 1 µg coated protein per well, 50 ng HRP anti-S-tag antibody, duplicates.

Experiment [9] has as its target T2, FN-B (recombinant human fibronectin EDB …). Nature of the experiment: ELISA, Trx fusion 50 to 1.563 nM on coated FN-B, HRP anti-S-tag antibody; relative binding from apparent binding constants against parental MC-FN-010, three assays.

Residue numbers refer to the chain shown, from its start. Bridge positions count the residues as written; N and C are the ends. Ends that are not written are not given here.

T1 sequence (P02751 1265-1908 limits assumed): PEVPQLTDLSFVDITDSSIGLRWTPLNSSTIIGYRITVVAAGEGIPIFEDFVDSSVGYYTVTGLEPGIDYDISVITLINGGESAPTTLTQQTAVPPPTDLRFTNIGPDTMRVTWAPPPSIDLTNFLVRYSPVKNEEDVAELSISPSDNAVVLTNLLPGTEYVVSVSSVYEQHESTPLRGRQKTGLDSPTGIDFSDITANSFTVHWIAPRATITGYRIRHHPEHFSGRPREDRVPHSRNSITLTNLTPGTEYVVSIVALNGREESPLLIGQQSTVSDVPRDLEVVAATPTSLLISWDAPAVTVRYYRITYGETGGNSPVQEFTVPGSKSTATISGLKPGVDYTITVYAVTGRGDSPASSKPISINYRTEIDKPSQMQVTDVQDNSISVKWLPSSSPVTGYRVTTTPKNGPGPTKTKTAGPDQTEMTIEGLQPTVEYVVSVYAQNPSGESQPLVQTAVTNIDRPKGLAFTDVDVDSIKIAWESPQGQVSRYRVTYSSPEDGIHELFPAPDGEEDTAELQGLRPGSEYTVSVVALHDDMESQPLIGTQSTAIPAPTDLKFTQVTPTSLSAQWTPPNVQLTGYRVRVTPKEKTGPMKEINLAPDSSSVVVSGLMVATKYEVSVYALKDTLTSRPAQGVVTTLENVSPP

B1: MC-FN-010 (tag-free cystine-knot miniprotein) (designed binder)
chain: PMCTQRKNRIRLCRRDSDCTGACICRGNGYCG
modifications: disulfide 13-25; disulfide (positions not given here); not fully specified (bridges)
Broadly, the Kd is the constant that tells how readily two partners part at equilibrium. As a reminder, the koff is the first-order rate constant of dissociation. The term kon denotes a measure of how fast the partners come together. Take B1: in experiment [1], the dissociation constant Kd is 1580 nM, the off-rate constant (koff) is 0.0783 s⁻¹ and the kon worked out at 49500 M⁻¹ s⁻¹.

B2: DOTA-(MC-FN-016)3 (unlabeled trimeric probe) (designed binder)
peptide: B1 chain with K7A
modifications: ends and bridges not checked; also: trimer, DOTA on trimer, site not given here
B2: in experiment [2], the Kd stood at 0.624 nM, the koff was found to be 0.00226 s⁻¹ and the kon stood at 3.73e+06 M⁻¹ s⁻¹.

B3: Trx-MC-FN-010 (thioredoxin fusion of cystine-knot miniprotein MC-FN-010) (designed binder)
chain: B1 chain
modifications: not fully specified; cysteine pairing not given here; also: fused to E. coli thioredoxin with His6-tag, S-tag and thrombin site
notes: also called Trx-MCopt 1.0-3; MCopt 1.0-3; not shown: E. coli thioredoxin-A, fusion partner from vector pET-32-LibEx; H6-tag, s-tag and thrombin cleavage site of pET-32-LibEx
As a reminder, the EC50 (read off the curve) is the concentration that produces a half-maximal response. As to B3, the figures for the EC50 (read off the curve) in experiment [3], in [4] and in [5] were 10 nM, roughly 10 nM and roughly 4 nM, respectively. Moreover, in the experiment with bovine serum albumin, the binding result was “no binding (tested: 200 nM)”.

B4: AF680-(MC-FN-010)3 (trimeric MC-FN-010 conjugated with Alexa Fluor 680) (designed binder)
peptide: B1 chain
modifications: ends and bridges not checked; also: trimer via oxime ligation, Alexa Fluor 680 label
As to B4, in [6], the dissociation constant Kd came out at 0.431 nM, the off-rate constant (koff) was 0.00347 s⁻¹ and the kon was 8.04e+06 M⁻¹ s⁻¹.

B5: AF680-(MC-FN-016)3 (trimeric MC-FN-016 conjugated with Alexa Fluor 680) (designed binder)
peptide: B1 chain with K7A
modifications: ends and bridges not checked; also: trimer via oxime ligation, Alexa Fluor 680 label
Turning to B5, in experiment [6], the dissociation constant Kd was 0.902 nM, the off-rate (koff) was found to be 0.00231 s⁻¹ and the kon is 2.56e+06 M⁻¹ s⁻¹.

B6: MC-FN-016 (tag-free cystine-knot miniprotein) (designed binder)
chain: B1 chain with K7A
modifications: disulfide 13-25; disulfide (positions not given here); not fully specified (bridges)
In the case of B6, in experiment [7], the equilibrium dissociation constant (Kd) came out at 1410 nM, the off-rate (koff) came out at 0.187 s⁻¹ and the on-rate constant (kon) was 133000 M⁻¹ s⁻¹.

B7: Trx-MC-FN-016 (thioredoxin fusion of cystine-knot miniprotein MC-FN-016) (designed binder)
chain: B1 chain with K7A
modifications: not fully specified (N-terminus, bridges); cysteine pairing not given here; also: N-terminal thioredoxin fusion carrier (Trx, H6-tag, S-tag, thrombin site), no letters given
notes: not shown: E. coli thioredoxin-A, fusion partner from vector pET-32-LibEx; H6-tag, s-tag and thrombin cleavage site of pET-32-LibEx
On to B7, for which, in experiment [8], the binding result is listed as “no binding (tested: 50 nM)”.

B8: Trx-MC-FN-0114 (designed binder)
peptide: B1 chain with R26A
modifications: disulfide 13-25, 19-31, 3-23; also: N-terminal thioredoxin fusion carrier (Trx, H6-tag, S-tag, thrombin site), no letters given
notes: alanine scan variant of MC-FN-010; not shown: N-terminal carrier from vector pET-32-LibEx (E. coli thioredoxin-A, H6-tag, S-tag, thrombin site and their linkers)
Regarding B8, in experiment [9], the binding result is “no binding (tested: 50 nM)”.

B9: Trx-MC-FN-0111 (designed binder, not shown: large carriers; small tags and cut ends)
chain: B1 chain with L12A
modifications: disulfide 13-25, 19-31, 3-23; also: N-terminal thioredoxin fusion carrier (Trx, H6-tag, S-tag, thrombin site), no letters given
notes: alanine scan variant of MC-FN-010
In the case of B9, in experiment [9], the binding result is given as “no binding (tested: 50 nM)”.

B10: Trx-MC-FN-0110 (designed binder, not shown: large carriers; small tags and cut ends)
chain: B1 chain with R11A
modifications: disulfide 13-25, 19-31, 3-23; also: N-terminal thioredoxin fusion carrier (Trx, H6-tag, S-tag, thrombin site), no letters given
notes: as for B9
Regarding B10, the binding result in [9] is recorded as “no binding (tested: 50 nM)”.

B11: Trx-MC-FN-018 (designed binder, not shown: large carriers; small tags and cut ends)
chain: B1 chain with R9A
modifications: disulfide 13-25, 19-31, 3-23; also: N-terminal thioredoxin fusion carrier (Trx, H6-tag, S-tag, thrombin site), no letters given
notes: as for B9
Consider B11, for which, in experiment [9], the binding result is recorded as “no binding (tested: 50 nM)”.

B12: Trx-MC-FN-019 (designed binder, not shown: large carriers; small tags and cut ends)
chain: B1 chain with I10A
modifications: disulfide 13-25, 19-31, 3-23; also: N-terminal thioredoxin fusion carrier (Trx, H6-tag, S-tag, thrombin site), no letters given
notes: as for B9
Turning to B12, the binding result in [9] is recorded as “no binding (tested: 50 nM)”.

(Values after patent US20210246191A1 (BIONTECH, published 2021).)
